Experimental data from the supplement of paper PMC10724198.

What was measured:
[1] = tested on: Saccharomyces cerevisiae; test: protein stability index of tFT-peptide fusion in wild type (PSI (0-1 scale)); higher = more stable (slower turnover); settings: genetic background: wild type
Description: (§1)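 MPS profiling in S. cerevisiae of two library types built from selected 12-aa C-degron peptides (IN1, IN2, LN1, LN3, VN2, R1-R5, W1-W3, Atg1 and Rpa12 C-termini): saturation mutagenesis libraries and C-terminal +1 capping libraries (13 aa). Each peptide is fused to the C-terminus of a sfGFP-mCherry timer, after a GGGS linker. Cells are FACS-sorted into 8 mCherry/sfGFP bins and sequenced. PSI runs from 0 (unstable) to 1 (stable), measured once in wild type and in the das1Δ or doa10Δ background.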

[2] = tested on: Saccharomyces cerevisiae; test: protein stability index of tFT-peptide fusion in deletion strain of DAS1 (PSI (0-1 scale)); higher = more stable (slower turnover)
Description: as §1
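For protein stability index of tFT-peptide fusion in deletion strain of DAS1 in this document: PSI is a weighted mean of each variant's read distribution over the sorted stability bins, computed only for variants having over 10 reads in total.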
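For protein stability index of tFT-peptide fusion in wild type in this document: PSI derived as read-weighted mean over the 8 sorting bins, only variants exceeding 10 total reads kept, mCherry placed adjacent to the peptide and sfGFP distal.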

Sequence | protein stability index [1] | protein stability index [2]
KKHKKGQKAKIN | 0.241 | 0.611
KKHKKGQYQKIN | 0.0851 | 0.569
RDKRNHLIKLLN | 0.1 | 0.612
RKILRQKMNHQN | 0.162 | 0.69
LVVYLSCVPCIN | 0.237 | 0.305
CTSCGYYFRTNN | 0.283 | 0.697
VRGEVGGWRLVG | 0.119 | 0.606
PDKPNHLIKLLN | 0.199 | 0.607
LDVYLSCVACIN | 0.134 | 0.231
LKILRQSMNHQN | 0.238 | 0.661
LVVYLSCVACEN | 0.132 | 0.132
PDKRNHLIKLLNN | 0.137 | 0.666
KKHKKGQKQKIP | 0.336 | 0.638
ARWRVGLWKGAS | 0.64 | 0.671
AEWRVGLWRGAS | 0.528 | 0.689
LVVYLDCVACIN | 0.0395 | 0.119
PDKRNELIKLLN | 0.115 | 0.608
PSLAAQFWRVVG | 0.14 | 0.696
PSMAASFWRVVG | 0.126 | 0.699
FSMRWTFRYWYN | 0.149 | 0.48

Sequence | protein stability index [1] | protein stability index [2]
ERGAVGGWRLVG | 0.168 | 0.675
KSLAASFWRVVG | 0.112 | 0.673
PDKRGHLIKLLN | 0.113 | 0.593
ARWRVGLWHGAS | 0.624 | 0.665
CTSGGYKFRTNN | 0.551 | 0.673
VRGAVGGWELVG | 0.551 | 0.63
FSGRWTFRYWVN | 0.0867 | 0.626
FSMRWTARYWVN | 0.0802 | 0.513
LVVYLSCVACINL | 0.0224 | 0.0337
IKILRQKMNHQN | 0.177 | 0.659
KKEKKGQKQKIN | 0.0774 | 0.578
LVVYLSCVACIE | 0.0121 | 0.0184
VPGAVGGWRLVG | 0.139 | 0.667
CTWCGYKFRTNN | 0.224 | 0.685
ARWRDGLWRGAS | 0.651 | 0.692
LKILRAKMNHQN | 0.223 | 0.665
VRGPVGGWRLVG | 0.181 | 0.682
CTSCGYLFRTNN | 0.348 | 0.698
FSMRWTFRKWVN | 0.314 | 0.634
PSLAAPFWRVVG | 0.182 | 0.696

Sequence | protein stability index [1] | protein stability index [2]
KKHKKGQKTKIN | 0.435 | 0.619
LYVYLSCVACIN | 0.0152 | 0.0144
VRGAVGGWRLVGN | 0.639 | 0.67
RLIQPLMVQFLN | 0.0988 | 0.598
KKHKKAQKQKIN | 0.06 | 0.601
RLIQPLPVQFLG | 0.35 | 0.6
PDKRNHLIKLLNH | 0.142 | 0.669
KKHRKGQKQKIN | 0.109 | 0.678
LKIHRQKMNHQN | 0.226 | 0.673
FVVYLSCVACIN | 0.0218 | 0.0242
PDKRNGLIKLLN | 0.222 | 0.614
KKHKKCQKQKIN | 0.0395 | 0.548
PDKRNHPIKLLN | 0.282 | 0.574
VRGAVGGWRLDG | 0.648 | 0.691
ARWRVVLWRGAS | 0.517 | 0.621
CHSCGYKFRTNN | 0.212 | 0.715
CQSCGYKFRTNN | 0.248 | 0.7
KKHKKGQKMKIN | 0.105 | 0.583
